Results reported in the supplement of paper PMC9112550, “Optimization of the antimicrobial peptide Bac7 by deep mutational scanning” (BMC Biology, 2022).

Each sequence was assayed on Escherichia coli TOP10 (assay: shrunken log2 fold change of peptide-encoding DNA abundance (4.5 h post-induction vs induction); higher = less antimicrobial activity (less host growth inhibition)). Conditions: time post-induction: 4.5 h; library: site-saturation at positions 5, 18, 19, 20.
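Note: peptides expressed intracellularly from a pBAD plasmid library in pooled LB shake-flask culture, induced with 0.3% L-arabinose, DNA abundance read by NGS, three biological replicates, DESeq2 with apeglm shrinkage.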

Question: How did the “shrunken log2 fold change” value turn out when RRIRERPPRLPRPRPRPEHPPRP was run?
Answer: -0.0878

Question: Which “shrunken log2 fold change” value does the source give for RRIRHRPPRLPRPRPRPKPEPRP here?
Answer: 0.0966

Question: For RRIRLRPPRLPRPRPRPHLYPRP, which “shrunken log2 fold change” value is on record?
Answer: 0.61

Question: How did the “shrunken log2 fold change” value turn out when RRIRLRPPRLPRPRPRPAWDPRP was run?
Answer: 0.0108

Question: With RRIRDRPPRLPRPRPRPHCAPRP as the sequence, how does the “shrunken log2 fold change” value read?
Answer: 0.143

Question: RRIRSRPPRLPRPRPRPVGLPRP was tested. Which “shrunken log2 fold change” value did it give?
Answer: 0.107

Question: Which “shrunken log2 fold change” value does the source give for RRIRQRPPRLPRPRPRPCQDPRP here?
Answer: 0.0207

Question: For RRIRERPPRLPRPRPRPNLGPRP, which “shrunken log2 fold change” value is on record?
Answer: -0.161

Question: Which “shrunken log2 fold change” value does the source give for RRIRQRPPRLPRPRPRPALMPRP here?
Answer: 0.0376

Question: How did the “shrunken log2 fold change” value turn out when RRIRVRPPRLPRPRPRPMKNPRP was run?
Answer: -0.104

Question: Which “shrunken log2 fold change” value does the source give for RRIRCRPPRLPRPRPRPYPQPRP here?
Answer: -0.595

Question: For RRIRERPPRLPRPRPRPFHAPRP, which “shrunken log2 fold change” value is on record?
Answer: -0.0736

Question: RRIRQRPPRLPRPRPRPAEWPRP was tested. Which “shrunken log2 fold change” value did it give?
Answer: -0.357

Question: For RRIRKRPPRLPRPRPRPYPPPRP, which “shrunken log2 fold change” value is on record?
Answer: -0.289

Question: With RRIRPRPPRLPRPRPRPSTWPRP as the sequence, how does the “shrunken log2 fold change” value read?
Answer: 0.0689

Question: How did the “shrunken log2 fold change” value turn out when RRIRGRPPRLPRPRPRPNRVPRP was run?
Answer: 0.0309

Question: For RRIRGRPPRLPRPRPRPACEPRP, which “shrunken log2 fold change” value is on record?
Answer: 0.833

Question: Which “shrunken log2 fold change” value does the source give for RRIRVRPPRLPRPRPRPHISPRP here?
Answer: 0.0648

Question: RRIRMRPPRLPRPRPRPQDTPRP was tested. Which “shrunken log2 fold change” value did it give?
Answer: -0.0435

Question: With RRIRGRPPRLPRPRPRPKFNPRP as the sequence, how does the “shrunken log2 fold change” value read?
Answer: 0.353

Question: With RRIRERPPRLPRPRPRPGENPRP as the sequence, how does the “shrunken log2 fold change” value read?
Answer: 0.00425

Question: Which “shrunken log2 fold change” value does the source give for RRIRCRPPRLPRPRPRPRWGPRP here?
Answer: 0.495

Question: With RRIRFRPPRLPRPRPRPGRVPRP as the sequence, how does the “shrunken log2 fold change” value read?
Answer: 0.787

Question: With RRIRPRPPRLPRPRPRPINGPRP as the sequence, how does the “shrunken log2 fold change” value read?
Answer: -0.482

Question: How did the “shrunken log2 fold change” value turn out when RRIRFRPPRLPRPRPRPYNQPRP was run?
Answer: -0.881

Question: How did the “shrunken log2 fold change” value turn out when RRIRLRPPRLPRPRPRPNYEPRP was run?
Answer: -0.416

Question: RRIRHRPPRLPRPRPRPSCLPRP was tested. Which “shrunken log2 fold change” value did it give?
Answer: -0.4

Question: How did the “shrunken log2 fold change” value turn out when RRIRKRPPRLPRPRPRPTIPPRP was run?
Answer: 0.263

Question: RRIRKRPPRLPRPRPRPHNLPRP was tested. Which “shrunken log2 fold change” value did it give?
Answer: 0.0314

Question: For RRIRDRPPRLPRPRPRPVCKPRP, which “shrunken log2 fold change” value is on record?
Answer: -0.0246

Question: How did the “shrunken log2 fold change” value turn out when RRIRSRPPRLPRPRPRPMKPPRP was run?
Answer: -0.0309

Question: RRIRYRPPRLPRPRPRPLSTPRP was tested. Which “shrunken log2 fold change” value did it give?
Answer: -0.29

Question: How did the “shrunken log2 fold change” value turn out when RRIRARPPRLPRPRPRPTAMPRP was run?
Answer: 0.822

Question: For RRIRTRPPRLPRPRPRPNYTPRP, which “shrunken log2 fold change” value is on record?
Answer: -0.753

Question: RRIRGRPPRLPRPRPRPCIFPRP was tested. Which “shrunken log2 fold change” value did it give?
Answer: 0.426

Question: RRIRGRPPRLPRPRPRPMMWPRP was tested. Which “shrunken log2 fold change” value did it give?
Answer: 0.412

Question: How did the “shrunken log2 fold change” value turn out when RRIRFRPPRLPRPRPRPMMKPRP was run?
Answer: -0.0975

Question: How did the “shrunken log2 fold change” value turn out when RRIRLRPPRLPRPRPRPFLVPRP was run?
Answer: -0.338

Question: With RRIRVRPPRLPRPRPRPDLGPRP as the sequence, how does the “shrunken log2 fold change” value read?
Answer: 0.155

Question: Which “shrunken log2 fold change” value does the source give for RRIRPRPPRLPRPRPRPQQMPRP here?
Answer: -0.00373

Question: Which “shrunken log2 fold change” value does the source give for RRIRNRPPRLPRPRPRPMYMPRP here?
Answer: -0.05

Question: RRIRYRPPRLPRPRPRPVPDPRP was tested. Which “shrunken log2 fold change” value did it give?
Answer: -0.0838

Question: How did the “shrunken log2 fold change” value turn out when RRIRTRPPRLPRPRPRPYALPRP was run?
Answer: -0.686

Question: RRIRLRPPRLPRPRPRPNDYPRP was tested. Which “shrunken log2 fold change” value did it give?
Answer: -0.582

Question: Which “shrunken log2 fold change” value does the source give for RRIRMRPPRLPRPRPRPARIPRP here?
Answer: 0.56

Question: For RRIRIRPPRLPRPRPRPEAYPRP, which “shrunken log2 fold change” value is on record?
Answer: 0.00489

Question: Which “shrunken log2 fold change” value does the source give for RRIRSRPPRLPRPRPRPGMRPRP here?
Answer: 0.789

Question: With RRIRWRPPRLPRPRPRPVNPPRP as the sequence, how does the “shrunken log2 fold change” value read?
Answer: 0.0699

Question: With RRIRPRPPRLPRPRPRPCKQPRP as the sequence, how does the “shrunken log2 fold change” value read?
Answer: -0.0806

Question: For RRIRFRPPRLPRPRPRPNDRPRP, which “shrunken log2 fold change” value is on record?
Answer: -0.108

Question: With RRIRCRPPRLPRPRPRPHFIPRP as the sequence, how does the “shrunken log2 fold change” value read?
Answer: -0.528

Question: With RRIRWRPPRLPRPRPRPWRPPRP as the sequence, how does the “shrunken log2 fold change” value read?
Answer: 0.178

Question: How did the “shrunken log2 fold change” value turn out when RRIRSRPPRLPRPRPRPSRNPRP was run?
Answer: -0.129

Question: How did the “shrunken log2 fold change” value turn out when RRIRQRPPRLPRPRPRPTNAPRP was run?
Answer: -0.309

Question: Which “shrunken log2 fold change” value does the source give for RRIRERPPRLPRPRPRPWADPRP here?
Answer: -0.00088

Question: RRIRPRPPRLPRPRPRPSFLPRP was tested. Which “shrunken log2 fold change” value did it give?
Answer: -0.271

Question: For RRIRLRPPRLPRPRPRPEFWPRP, which “shrunken log2 fold change” value is on record?
Answer: 0.417

Question: Which “shrunken log2 fold change” value does the source give for RRIRARPPRLPRPRPRPIQYPRP here?
Answer: -0.463

Question: How did the “shrunken log2 fold change” value turn out when RRIRNRPPRLPRPRPRPNFGPRP was run?
Answer: -0.0224

Question: How did the “shrunken log2 fold change” value turn out when RRIRGRPPRLPRPRPRPLYIPRP was run?
Answer: -0.321

Question: RRIRGRPPRLPRPRPRPMCSPRP was tested. Which “shrunken log2 fold change” value did it give?
Answer: 0.606

Question: For RRIRPRPPRLPRPRPRPPWAPRP, which “shrunken log2 fold change” value is on record?
Answer: 1.32

Question: Which “shrunken log2 fold change” value does the source give for RRIRMRPPRLPRPRPRPHMNPRP here?
Answer: -0.0129

Question: RRIRPRPPRLPRPRPRPDHCPRP was tested. Which “shrunken log2 fold change” value did it give?
Answer: -0.199

Question: With RRIRFRPPRLPRPRPRPIKRPRP as the sequence, how does the “shrunken log2 fold change” value read?
Answer: 0.988

Question: RRIRPRPPRLPRPRPRPYNNPRP was tested. Which “shrunken log2 fold change” value did it give?
Answer: -1.25

Question: How did the “shrunken log2 fold change” value turn out when RRIRCRPPRLPRPRPRPIHSPRP was run?
Answer: -0.221

Question: With RRIRERPPRLPRPRPRPHPYPRP as the sequence, how does the “shrunken log2 fold change” value read?
Answer: -0.103

Question: With RRIRFRPPRLPRPRPRPVGMPRP as the sequence, how does the “shrunken log2 fold change” value read?
Answer: 0.348

Question: How did the “shrunken log2 fold change” value turn out when RRIRERPPRLPRPRPRPGQMPRP was run?
Answer: 0.0413

Question: Which “shrunken log2 fold change” value does the source give for RRIRPRPPRLPRPRPRPYNLPRP here?
Answer: -0.708

Question: Which “shrunken log2 fold change” value does the source give for RRIRPRPPRLPRPRPRPITTPRP here?
Answer: -0.139

Question: For RRIRLRPPRLPRPRPRPICTPRP, which “shrunken log2 fold change” value is on record?
Answer: -0.243

Question: Which “shrunken log2 fold change” value does the source give for RRIRDRPPRLPRPRPRPSMLPRP here?
Answer: -0.244

Question: With RRIRSRPPRLPRPRPRPTPPPRP as the sequence, how does the “shrunken log2 fold change” value read?
Answer: 0.43
